Laboratory results taken from paper PMC9080080.

Biological target: SARS-CoV-2 Omicron-S (SARS-CoV-2) (UniProt P0DTC2)
Test: cryo-EM structure

SARS-CoV-2 Omicron-S (from UniProt P0DTC2 340-527) (natural protein)
stoichiometry N: 3
